Measurements: patent US20170368150A1, “METHODS OF TREATING PULMONARY SARCOIDOSIS” (GOTHAM BIOPHARMACEUTICALS, INC., priority 2014, published 2017)

Assays:
[1] = test system: patient with chronic pulmonary sarcoidosis; assay: n=1 long-term clinical treatment of a chronic pulmonary sarcoidosis patient with PULMOZYME; assay type: in vivo
From the text: At times, the patient was bedridden, dyspneic, and could not climb stairs or walk more than 10 feet. Steroids had been prescribed by pulmonary specialists; however the side effects of steroid therapy (diabetes, weight gain, memory loss, mental confusion, crippling joint pain) were intolerable. The patient's pulmonary sarcoidosis was deemed ultimately refractory to steroid therapy, which was discontinued, leaving essentially no therapeutic options for this patient.
PULMOZYME® was prescribed to the patient by a licensed medical practitioner to initiate treatment.
The extended clinical timeline described above allowed for a distinction between remission and stabilization of the disease to be made. […] This was done on an annual basis for the patient described above for the typical “survival window” (8-14 years for patients with progressive, chronic disease).
The clinical timeline for treatment of the patient described above with PULMOZYME® is represented diagrammatically in FIG. 3 during pretreatment and for the entire treatment interval.

bronchiectasis patients = settings: large clinical trial; cited from earlier work
[2] = more than 10 years of treatment

B1: dornase alfa (protein, listed as Homo sapiens)
chain: LKIAAFNIQTFGETKMSNATLVSYIVQILSRYDIALVQEVRDSHLTAVGKLLDNLNQDAPDTYHYVVSEPLGRNSYKERYLFVYRPDQVSAVDSYYYDDGCEPCGNDTFNREPAIVRFFSRFTEVREFAIVPLHAAPGDAVAEIDALYDVYLDVQEKWGLEDVMLMGDFNAGCSYVRPSQWSSIRLWTSPTFQWLIPDSADTTATPTHCAYDRIVVAGMLLRGAVVPDSALPFNFQAAYGLSDQLAQAISDHYPVEVMLK
With B1 the “pulmonary disease symptoms (dyspnea, inspissated secretions) on discontinuation of therapy” value ([1]; annual 2-week discontinuation, resolved upon resumption (2.5 mg qd 4x weekly)) was “worsened”, the “arterial O2 saturation (finger pulse oximetry)” value ([1]; at present, on room air) was 98% and the “Arterial oxygenation via pulse oximetry, SaO2” value ([1]; currently measured on room air, low of 70% in pre-treatment interval) was 99%. The “Chest physical therapy with postural drainage” value ([1]; during PULMOZYME therapy) was “none required”, the “General quality of life” value ([1]; during PULMOZYME therapy) was “vastly improved” and the “Rib fractures and abdominal hernias” value ([1]; during PULMOZYME therapy) was “none”. For the same molecule, the Granuloma formation/expectoration ([1]; during treatment) was “occasional”, the sarcoid skin involvement ([1]; during treatment) was “unchanged” and the Remission of disease ([1]; judged by annual 14-day discontinuation) was “not evident”. The “Emergency room visits and hospitalizations relating to pulmonary sarcoidosis” value [1, 2] was “none”, the “Pulmonary exacerbations (pneumonia)” value [1, 2] was “not been a single pulmonary exacerbation and none” and the “routine chest x-rays during treatment” value ([1]; scarring not progressed to more severe disease) was “improvement”. The “Blood chemistry, liver and kidney function during treatment” value ([1]; single patient) was “normal”, the “Exercise tolerance during treatment” value ([1]; single patient) was “unlimited” and the “Coughing, wheezing, dyspnea” value ([1]; single patient, continued therapy 3-4 days/week) was “none”. The “Adverse events / side effects relating to PULMOZYME” value ([1]; single patient, long-term treatment (more than 10 years; over 12 years)) was “complete absence of side effects and without side effects or incident and none”, the “benefit of treatment in bronchiectasis” value (bronchiectasis patients) was “failed to demonstrate any benefit” and the “safety of treatment in bronchiectasis” value (bronchiectasis patients) was “potentially harmful”.
